Measurements reported in publication PMC7672437.

Target: Human recombinant full length DDX3X (human) (UniProt O00571)

helicase activity (unwinding of dsRNA Substrate *R18: R38) against DDX3X concentration, cooperativity index nH: 1.5 | helicase activity (unwinding of dsRNA Substrate *R18: R38) against DDX3X concentration, half-maximal enzyme concentration K1/2: 0.26 µM | nuclease (RNaseH2-like) activity against DDX3X concentration, cooperativity index nH (no cooperativity observed): 0.7
Substance: Human recombinant full length DDX3X (from UniProt O00571 1-662) (enzyme)
